± gives the uncertainty stated by the source.
B1: POU domain, class 3, transcription factor 4, residues 280 to 335; numbered along this chain, P49335 (parent)
chain: KKRTSIEVSVKGVLETHFLKCPKPAAQEISSLADSLQLEKEVVRVWFCNRRQKEKR

Variants of: B1
Assay: abundance fitness (aPCA) (normalised: wild type 0, dead -1); higher = more abundant; growth selection in yeast, the domain comes from the species named
Conditions: Homo sapiens

Row | Variant | abundance fitness
1 | KKRTSIEVSVKGVLETHFLKCPKPAAQEISSLADSLQLEKEVVRVWFCIRRQKEKR [N49I] | -0.613 ± 0.24
2 | KKRTSIEVSVKGVLETHFLKCPKPAAQEISSLADSLQLEKEVVRVWFCARRQKEKR [N49A] | -0.373 ± 0.17
3 | KKRTSIEVSVKGVLETHFLKCPKPAAQEISSLADSLQLEKEVVRVWFCPRRQKEKR [N49P] | -0.724 ± 0.21
4 | KKRTSIEVSVKGVLETHFLKCPKPAAQEISSLADSLQLEKEVVRVWFCLRRQKEKR [N49L] | -0.479 ± 0.14
5 | KKRTSIEVSVKGVLETHFLKCPKPAAQEISSLADSLQLEKEVVRVWFCDRRQKEKR [N49D] | 0 ± 0.23
6 | KKRTSIEVSVKGVLETHFLKCPKPAAQEISSLADSLQLEKEVVRVWFCFRRQKEKR [N49F] | -0.574 ± 0.18
7 | KKRTSIEVSVKGVLETHFLKCPKPAAQEISSLADSLQLEKEVVRVWFCMRRQKEKR [N49M] | -0.304 ± 0.22
8 | KKRTSIEVSVKGVLETHFLKCPKPAAQEISSLADSLQLEKEVVRVWFCERRQKEKR [N49E] | 0.117 ± 0.2
9 | KKRTSIEVSVKGVLETHFLKCPKPAAQEISSLADSLQLEKEVVRVWFCWRRQKEKR [N49W] | -0.885 ± 0.21
10 | KKRTSIEVSVKGVLETHFLKCPKPAAQEISSLADSLQLEKEVVRVWFCKRRQKEKR [N49K] | -0.119 ± 0.16
11 | KKRTSIEVSVKGVLETHFLKCPKPAAQEISSLADSLQLEKEVVRVWFCQRRQKEKR [N49Q] | 0 ± 0.16
12 | KKRTSIEVSVKGVLETHFLKCPKPAAQEISSLADSLQLEKEVVRVWFCYRRQKEKR [N49Y] | -0.752 ± 0.23
13 | KKRTSIEVSVKGVLETHFLKCPKPAAQEISSLADSLQLEKEVVRVWFCSRRQKEKR [N49S] | -0.308 ± 0.14
14 | KKRTSIEVSVKGVLETHFLKCPKPAAQEISSLADSLQLEKEVVRVWFCCRRQKEKR [N49C] | -0.686 ± 0.28
15 | KKRTSIEVSVKGVLETHFLKCPKPAAQEISSLADSLQLEKEVVRVWFCTRRQKEKR [N49T] | -0.363 ± 0.14
16 | KKRTSIEVSVKGVLETHFLKCPKPAAQEISSLADSLQLEKEVVRVWFCHRRQKEKR [N49H] | -0.46 ± 0.2
17 | KKRTSIEVSVKGVLETHFLKCPKPAAQEISSLADSLQLEKEVVRVWFCGRRQKEKR [N49G] | -0.711 ± 0.17
18 | KKRTSIEVSVKGVLETHFLKCPKPAAQEISSLADSLQLEKEVVRVWFCNTRQKEKR [R50T] | -0.693 ± 0.25
19 | KKRTSIEVSVKGVLETHFLKCPKPAAQEISSLADSLQLEKEVVRVWFCNKRQKEKR [R50K] | -0.446 ± 0.2
20 | KKRTSIEVSVKGVLETHFLKCPKPAAQEISSLADSLQLEKEVVRVWFCNNRQKEKR [R50N] | -0.771 ± 0.41
21 | KKRTSIEVSVKGVLETHFLKCPKPAAQEISSLADSLQLEKEVVRVWFCNPRQKEKR [R50P] | -0.87 ± 0.23
22 | KKRTSIEVSVKGVLETHFLKCPKPAAQEISSLADSLQLEKEVVRVWFCNQRQKEKR [R50Q] | -0.88 ± 0.41
23 | KKRTSIEVSVKGVLETHFLKCPKPAAQEISSLADSLQLEKEVVRVWFCNERQKEKR [R50E] | -0.814 ± 0.21
24 | KKRTSIEVSVKGVLETHFLKCPKPAAQEISSLADSLQLEKEVVRVWFCNWRQKEKR [R50W] | -0.999 ± 0.34

Row | Variant | abundance fitness
25 | KKRTSIEVSVKGVLETHFLKCPKPAAQEISSLADSLQLEKEVVRVWFCNCRQKEKR [R50C] | -0.769 ± 0.36
26 | KKRTSIEVSVKGVLETHFLKCPKPAAQEISSLADSLQLEKEVVRVWFCNMRQKEKR [R50M] | -0.692 ± 0.34
27 | KKRTSIEVSVKGVLETHFLKCPKPAAQEISSLADSLQLEKEVVRVWFCNLRQKEKR [R50L] | -0.93 ± 0.2
28 | KKRTSIEVSVKGVLETHFLKCPKPAAQEISSLADSLQLEKEVVRVWFCNIRQKEKR [R50I] | -0.93 ± 0.28
29 | KKRTSIEVSVKGVLETHFLKCPKPAAQEISSLADSLQLEKEVVRVWFCNARQKEKR [R50A] | -0.582 ± 0.14
30 | KKRTSIEVSVKGVLETHFLKCPKPAAQEISSLADSLQLEKEVVRVWFCNGRQKEKR [R50G] | -0.778 ± 0.14
31 | KKRTSIEVSVKGVLETHFLKCPKPAAQEISSLADSLQLEKEVVRVWFCNYRQKEKR [R50Y] | -0.559 ± 0.34
32 | KKRTSIEVSVKGVLETHFLKCPKPAAQEISSLADSLQLEKEVVRVWPCNRRQKEKR [F47P] | -0.996 ± 0.27
33 | KKRTSIEVSVKGVLETHFLKCPKPAAQEISSLADSLQLEKEVVRVWYCNRRQKEKR [F47Y] | -0.534 ± 0.3
34 | KKRTSIEVSVKGVLETHFLKCPKPAAQEISSLADSLQLEKEVVRVWLCNRRQKEKR [F47L] | -0.868 ± 0.17
35 | KKRTSIEVSVKGVLETHFLKCPKPAAQEISSLADSLQLEKEVVRVWMCNRRQKEKR [F47M] | -0.897 ± 0.3
36 | KKRTSIEVSVKGVLETHFLKCPKPAAQEISSLADSLQLEKEVVRVWSCNRRQKEKR [F47S] | -0.426 ± 0.15
37 | KKRTSIEVSVKGVLETHFLKCPKPAAQEISSLADSLQLEKEVVRVWRCNRRQKEKR [F47R] | -0.677 ± 0.17
38 | KKRTSIEVSVKGVLETHFLKCPKPAAQEISSLADSLQLEKEVVRVWWCNRRQKEKR [F47W] | -0.769 ± 0.21
39 | KKRTSIEVSVKGVLETHFLKCPKPAAQEISSLADSLQLEKEVVRVWQCNRRQKEKR [F47Q] | -0.899 ± 0.31
40 | KKRTSIEVSVKGVLETHFLKCPKPAAQEISSLADSLQLEKEVVRVWVCNRRQKEKR [F47V] | -0.795 ± 0.19
41 | KKRTSIEVSVKGVLETHFLKCPKPAAQEISSLADSLQLEKEVVRVWFCNRDQKEKR [R51D] | -0.839 ± 0.34
42 | KKRTSIEVSVKGVLETHFLKCPKPAAQEISSLADSLQLEKEVVRVWFCNRMQKEKR [R51M] | -0.243 ± 0.21
43 | KKRTSIEVSVKGVLETHFLKCPKPAAQEISSLADSLQLEKEVVRVWFCNREQKEKR [R51E] | -0.258 ± 0.16
44 | KKRTSIEVSVKGVLETHFLKCPKPAAQEISSLADSLQLEKEVVRVWFCNRKQKEKR [R51K] | -1.04 ± 0.35
45 | KKRTSIEVSVKGVLETHFLKCPKPAAQEISSLADSLQLEKEVVRVWFCNRLQKEKR [R51L] | -0.305 ± 0.14
46 | KKRTSIEVSVKGVLETHFLKCPKPAAQEISSLADSLQLEKEVVRVWFCNRTQKEKR [R51T] | -0.848 ± 0.33
47 | KKRTSIEVSVKGVLETHFLKCPKPAAQEISSLADSLQLEKEVVRVWFCNRAQKEKR [R51A] | -0.309 ± 0.14
